Test results: patent CN114316047A (DONGDA BIOTECHNOLOGY SUZHOU CO LTD, dated 2022)

Assays:
[1] = target: T1, 人的PD-1胞外区与人Fc融合蛋白(PD-1-ECD-hFc) (human, UniProt Q15116 25-170); test: ELISA, PD-1-ECD-hFc coated, goat anti-mouse IgG detection
T1 construct: extracellular domain; Coated on ELISA plates; also called PD-1-hFc; not shown: human Fc

[2] = target: T1, 人的PD-1胞外区与人Fc融合蛋白(PD-1-ECD-hFc); test: competition ELISA, PD-1-ECD-hFc coated, competitor PD-L1-Biotin
[3] = target: T2, PD-1 on 293T-PD-1 cells (UniProt Q15116 25-288, limits assumed); test: FACS on 293T-PD-1 cells, PE goat anti-mouse detection
T2 construct: whole, on cells; the antibodies are anti-human PD-1
T2 sequence (Q15116 25-288 limits assumed): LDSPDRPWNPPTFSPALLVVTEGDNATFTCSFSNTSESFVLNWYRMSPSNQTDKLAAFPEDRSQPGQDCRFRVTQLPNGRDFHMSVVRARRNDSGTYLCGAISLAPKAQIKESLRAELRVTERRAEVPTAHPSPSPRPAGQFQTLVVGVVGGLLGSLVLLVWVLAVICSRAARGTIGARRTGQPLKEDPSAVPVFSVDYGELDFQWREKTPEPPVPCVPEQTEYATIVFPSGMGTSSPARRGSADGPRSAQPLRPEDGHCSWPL

[4] = target: T2, PD-1 on 293T-PD-1 cells; test: competition FACS on 293T-PD-1 cells, competitor PD-L1-biotin (row head prints EC50, title IC50)
[5] = target: T1, 人的PD-1胞外区与人Fc融合蛋白(PD-1-ECD-hFc); test: competition ELISA, coated PD-1-hFc (per table title; figure 7 legend says PD-1-mFc), competitor PD-L1-Biotin
[6] = target: T2, PD-1 on 293T-PD-1 cells; test: FACS on 293T-PD-1 cells
[7] = target: T3, 人的PD-1胞外区与小鼠Fc融合蛋白(PD-1-ECD-mFc) (human, UniProt Q15116 25-170); test: ELISA on coated PD-1-mFc (antigen per legend of figure 6)
T3 construct: extracellular domain; also called PD-1-mFc; not shown: mouse Fc
T3 sequence (Q15116 25-170): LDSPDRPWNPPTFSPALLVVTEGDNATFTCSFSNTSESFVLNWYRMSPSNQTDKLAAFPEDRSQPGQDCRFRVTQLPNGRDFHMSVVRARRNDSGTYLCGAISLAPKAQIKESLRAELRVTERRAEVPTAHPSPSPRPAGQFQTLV

T1 sequence (Q15116 25-170): as above

| Binder | EC50 [1] | IC50 [2] | EC50 [3] | IC50 [4] | IC50 [5] | EC50 [6] | EC50 [7] |
| --- | --- | --- | --- | --- | --- | --- | --- |
| 5H10 (antibody, V domains shown, Mouse monoclonal antibody purified from hybridoma supernatant by Protein A; also called 鼠源PD-1单克隆抗体5H10; PD-1杂交瘤抗体5H10) VH: EVQLVESGGGLVKPGGSLKLSCAASGFTFSDYGMHWVRQAPEKGLEWVAYISGDSNTIYYADTVKGRFTISRDNAKNTLFLQMTSLRSEDTAMYYCTKRGPYYGYTHYFDYWGQGTTLTVSS VL: SIVMTQTPKFLLVSAGDRVTMTCKASQSVSNDVVWYQQKPGQSPKLLIYYASKRYTGVPDRFTGNGYGTDFTFTISTVQAEDLAVYFCQQDYSSPWTFGGGTKLEIK | 0.00109 mg/L | 0.339 mg/L | 0.0643 mg/L | 0.0412 mg/L | – | – | – |
| 5F7 (antibody, V domains shown, Mouse monoclonal antibody purified from hybridoma supernatant by Protein A; also called 鼠源PD-1单克隆抗体5F7; PD-1杂交瘤抗体5F7) VH: EVMLVESGGDLVKPGGSLKLSCAASGFTFSSYMMSWVRQTPEKRLEWVAAISGGGGDTYYPDSVKGRFTISRDNAKNTLYLQMSSLRSEDTALYYCARRVVYAMDCWGQGTSVTVSS VL: DIQMTQSPASQSASLGESVTITCLASQSIGTWLVWYQQKPGKSPQLLISAATSLADGVPSRFSGSGSGTKFSFKISSLQAEDFVSYYCQQLYIIPWTFGGGTKLEIK | 0.00123 mg/L | 0.324 mg/L | 0.0176 mg/L | 0.0181 mg/L | – | – | – |
| 4B5 (antibody, V domains shown, Mouse monoclonal antibody purified from hybridoma supernatant by Protein A; also called 鼠源PD-1单克隆抗体4B5; PD-1杂交瘤抗体4B5) VH: EVILVESGGDLVKPGGSLKLSCAASGFTFSSYMMSWVRQTPEKRLEWVATISGGGANTYYLDSMKGRFTISRDNAKNILYLQMSSLRSEDTAFYYCARQSDRGFPYWGQGTLVTVSA VL: DIQMTQSPASQSASLGESVTITCLASQPIGTWLAWYQQKPGTSPQLLIFAATTLTDGVPSRFSGSGSGTKFSFKISSLQAEDFVSYYCQQFSSIPYTFGGGTRLEIK | 0.00175 mg/L | 0.343 mg/L | 0.04 mg/L | 0.0355 mg/L | – | – | – |
| 8D4 (antibody, V domains shown, Mouse monoclonal antibody purified from hybridoma supernatant by Protein A; also called 鼠源PD-1单克隆抗体8D4; PD-1杂交瘤抗体8D4) VH: EVQLQQSGTVLARPGASVKMSCKTSGYTFTNFWMHWVKQRPGQGLDWIGAIFPGNTDTTYNRKFKDKAKLTAVTSASTAYMELSSLTNEDSAVYYCTRNHYGLDYWGQGTSVTVSS VL: DIVLTQSPASLAVSLGQRATISCRASESVSIHGTHLMHWYQQKPGQPPKLLIYIASNLGSGVPARFSGSGSETDFTLNIHPVEEEDAATYFCQQSIEDPWTFGGGTKLEIK | 0.00261 mg/L | 0.37 mg/L | 0.0443 mg/L | 0.0296 mg/L | – | – | – |

The next lines start with the values.

| EC50 [1] | IC50 [2] | EC50 [3] | IC50 [4] | IC50 [5] | EC50 [6] | EC50 [7] | Binder |
| --- | --- | --- | --- | --- | --- | --- | --- |
| 0.00114 mg/L | 0.361 mg/L | 0.0314 mg/L | 0.0276 mg/L | – | – | – | 10A10 (antibody, V domains shown, Mouse monoclonal antibody purified from hybridoma supernatant by Protein A; also called 鼠源PD-1单克隆抗体10A10; PD-1杂交瘤抗体10A10) VH: EVKLVESGGDLVKPGGSLKLSCAASGFTFNYYDISWVRQTPEKRLEWVATISGGGRYTYYLDNVQGRFTISRDNAKNILYLQMNSLRSDDTALYFCASPYEGAMDYWGQGTSVTVSS VL: DIVMTQSHKFMSTSIGDGVNITCKASQDVGTAVAWYQQKPGQSPKLLNKWASTRHTGVPDRFTGSGSGTDFTLTINNVQSEDLADYFCQQYSTFPYTFGGGTNLELK |
| – | – | – | – | 0.332 mg/L | 0.285 mg/L | 0.00532 mg/L | hu9H8-hIgG4 (antibody, V domains shown, Humanised antibody built as IgG4 subtype, expressed in 293 cells; also called 9H8人源化抗体; 人源化抗体9H8) VH: EVQLLESGGGLVQPGGSLRLSCAASGFTFSDYYMYWVRQAPGKGLEWVSQISNGGGNTYYPDTVKGRFTISRDNSKNTLYLQMNSLRAEDTAVYYCSKSYYKYDGWYFDVWGQGTLVTVSS VL: DIVMTQSPDSLAVSLGERATINCRASESVEYSRTSLIQWYQQKPGQPPKLLIYAASYVESGVPDRFSGSGSGTDFTLTISSLQAEDVAVYYCQQARKVPWTFGQGTKLEIK |
| 0.000511 mg/L | 0.319 mg/L | 0.0203 mg/L | 0.00854 mg/L | – | – | – | 9H8 (antibody, V domains shown, Mouse monoclonal antibody purified from hybridoma supernatant by Protein A; also called 鼠源PD-1单克隆抗体9H8; PD-1杂交瘤抗体9H8) VH: EVKLVESGGGLVQPGGSLKLSCATSGFTFSDYYMYWVRQTPEKRLEWVAQISNGGGNTYYPDTVKGRFTISRDNAKNTLYLQMSRLKSEDTAIYYCSKSYYKYDGWYFDVWGAGTTVTVSS VL: DIVLTQSPASLAVSLGQRATISCRASESVEYSRTSLIQWYQLKPGQPPKLLIYAASYVESGVPDRFSGSGSGTEFSFNIHPVEEDDIAMYFCQQARKVPWTFGGGTNLEIK |
| – | – | – | – | 0.851 mg/L | 0.311 mg/L | 0.0489 mg/L | hu8D4-hIgG4 (antibody, part only; not given: Light chain variable domain, constant regions, V domains shown, part only) VH: QVQLVQSGAEVKKPGASVKVSCKASGYTFTNFWMHWVRQAPGQRLEWIGAIFPGNTDTTYNRKFKDRATLTADTSASTAYMELSSLRSEDTAVYYCTRNHYGLDYWGQGTLVTVSS |
